From patent publication US20020045591A1, “Methods and therapeutic compositions for treating cancer” (priority 1998, published 2002)

Key:
[1] = tested on: β-catenin-mediated transactivation; test: TOPFLASH/FOPFLASH luciferase transactivation in CHO cells; format: cell-based; conditions: TOPFLASH, FIG. 5A lanes 7-9
Method: (§1) Cell culture and transfections: CHO and SW480 human colon carcinoma cells were cultured in Dulbecco's modified Eagle's medium containing 10% fetal calf serum in an 8% CO2 incubator at 37° C. Transfections were performed using Lipofectamine (Gibco, BRL, USA) according to the manufacturer's instructions. Stably transfected CHO clones were generated by co-transfection with a plasmid encoding the puromycin resistance gene. Two days after transfection, cells were replated in the presence of 10 μg/ml puromycin (Sigma, Holon, Israel). Stable clones were isolated 2 weeks later and tested for the expression of the transgene by Western blot analysis.
Transactivation assays: CHO cells were transfected with TOPFLASH or FOPFLASH vectors (van de Wetering et al., 1997, ibid) and with pCDNA3 coding for β-galactosidase to normalize for transfection efficiency. The transfection mixture also contained either β-catenin, LEF-1 or cadherin derivatives in different combinations, as indicated. SW480 cells were transfected with TOPFLASH and cadherin derivatives. […] The reactions were stopped with 1 M Na2CO3 and the absorbance at 420 nm was determined. […] The luciferase reaction was monitored by a TD-20e luminometer (Turner, USA) and normalized for the β-galactosidase activity. […]

β-catenin = molecular target: T1, β-catenin (Cricetulus griseus, UniProt G3H996); test: β-catenin level in CHO cells by Western blot; format: cell-based; conditions: stably transfected CHO cells, FIG. 2A
T1 construct: resulting from the stabilization of the endogenous β-catenin by the transfected cadherin derivatives; endogenous in cells; host or cells: CHO cells, stably or transiently transfected with cadherin derivatives only
T1 sequence (G3H996 1-781): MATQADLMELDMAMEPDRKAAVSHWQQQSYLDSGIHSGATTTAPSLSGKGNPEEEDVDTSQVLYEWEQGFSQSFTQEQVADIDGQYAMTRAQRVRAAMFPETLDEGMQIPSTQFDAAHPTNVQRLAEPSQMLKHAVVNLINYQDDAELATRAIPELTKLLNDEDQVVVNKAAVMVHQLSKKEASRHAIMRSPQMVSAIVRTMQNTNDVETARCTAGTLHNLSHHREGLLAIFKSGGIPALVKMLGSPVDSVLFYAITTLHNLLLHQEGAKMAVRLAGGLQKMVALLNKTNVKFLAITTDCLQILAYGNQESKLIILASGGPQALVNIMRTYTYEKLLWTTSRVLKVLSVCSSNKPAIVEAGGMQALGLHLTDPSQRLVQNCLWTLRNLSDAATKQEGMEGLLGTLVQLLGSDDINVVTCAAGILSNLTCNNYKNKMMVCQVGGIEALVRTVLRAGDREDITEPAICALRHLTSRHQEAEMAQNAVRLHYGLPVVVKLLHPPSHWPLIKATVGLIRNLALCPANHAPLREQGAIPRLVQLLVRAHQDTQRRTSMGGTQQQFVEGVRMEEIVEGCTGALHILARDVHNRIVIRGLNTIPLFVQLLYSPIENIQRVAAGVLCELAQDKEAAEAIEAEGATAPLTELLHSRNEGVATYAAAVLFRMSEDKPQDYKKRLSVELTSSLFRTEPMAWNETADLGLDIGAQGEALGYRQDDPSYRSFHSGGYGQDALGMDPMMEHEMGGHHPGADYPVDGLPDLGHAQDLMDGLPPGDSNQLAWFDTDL
Method: as §1
Immunoblotting and immunoprecipitation: The following antibodies were used: polyclonal pan-cadherin or monoclonal anti cadherin (CH-19) and polyclonal anti β-catenin antibodies were from Sigma (Holon, Israel). Monoclonal anti β-catenin, 5H10 (from M. Wheelock), anti IL2Rα (from UBI), anti flag (M2, from IBI), anti HA (clone 12CA5, from Boehringer Mannheim, Germany), anti GFP (polyclonal, from Clontech, Palo Alto, Calif.), anti LEF-1 (polyclonal, kindly provided by Dr. R. Grosschedl). […]

B1: N-cadherin tail: Cytoplasmic domain of chicken N-cadherin tagged with a Flag epitope (protein)
chain: MKRRDKERQAKQLLIDPEDDVRDNILKYDEEGGGEEDQDYDLSQLQQPDTVEPDAIKPVGIRRLDERPIHAEPQYPVRSAAPHPGDIGDFINEGLKAADNDPTAPPYDSLLVFDYEGSGSTAGSLSSLNSSSSGGEQDYDYLNDWGPRFKKLADMYGGGDD
modifications: left off: small tags and cut ends
luciferase activity (LEF-1 transactivation) after transfection with LEF-1 and cadherin derivative [1]: no specific transactivation was detected | effect on β-catenin levels (β-catenin): increase in β-catenin levels
